Experimental findings from patent US20120135923A1, “Use of Melanocortins to Treat Dyslipidemia” (IPSEN PHARMA, S.A.S., priority 2009, published 2012) are described below.

Bridge positions count the residues as written; N and C are the ends. Square brackets hold non-standard residues; d marks the D form. Ends that are not written are not given here. Orn = NCCC[C@H](N)C(=O)O; Dab = NCC[C@H](N)C(=O)O; Dap = NC[C@H](N)C(=O)O

Assay [1] concerns the target human melanocortin receptor subtype 3 (hMC3-R) (human) (UniProt P41968). The experiment in a line: [125I]-NDP-α-MSH competition, membranes.
Assay [2] concerns the target human melanocortin receptor subtype 1 (hMC1-R) (human) (UniProt Q01726). The experiment in a line: [125I]-NDP-α-MSH competition, membranes.
Assay [3] addresses human melanocortin receptor subtype 5 (hMC5-R) (human) (UniProt P33032). The experiment in a line: [125I]-NDP-α-MSH competition, membranes.
Assay [4] has as its target human melanocortin receptor subtype 4 (hMC4-R) (human) (UniProt P32245). The experiment in a line: [125I]-NDP-α-MSH competition, membranes.
For assay [5], the target named is hMC1-R (human) (UniProt Q01726). The experiment in a line: cell-based or functional assay.
Chain of hMC1-R (human) (Q01726 whole entry): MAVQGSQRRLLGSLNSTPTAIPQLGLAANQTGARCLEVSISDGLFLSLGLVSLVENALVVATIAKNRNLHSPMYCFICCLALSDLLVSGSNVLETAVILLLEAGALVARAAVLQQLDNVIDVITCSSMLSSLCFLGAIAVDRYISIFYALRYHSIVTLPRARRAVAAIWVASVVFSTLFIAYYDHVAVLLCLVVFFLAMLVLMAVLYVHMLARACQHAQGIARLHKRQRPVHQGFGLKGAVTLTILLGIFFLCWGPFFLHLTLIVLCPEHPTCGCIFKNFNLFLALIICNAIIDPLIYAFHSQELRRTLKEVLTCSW
Assay [6] addresses hMC4-R (human) (UniProt P32245). Put plainly: cell-based or functional assay.
In assay [7] the target is hMC3-R (human) (UniProt P41968). The experiment in a line: cell-based or functional assay.
Chain of hMC3-R (human) (P41968 whole entry): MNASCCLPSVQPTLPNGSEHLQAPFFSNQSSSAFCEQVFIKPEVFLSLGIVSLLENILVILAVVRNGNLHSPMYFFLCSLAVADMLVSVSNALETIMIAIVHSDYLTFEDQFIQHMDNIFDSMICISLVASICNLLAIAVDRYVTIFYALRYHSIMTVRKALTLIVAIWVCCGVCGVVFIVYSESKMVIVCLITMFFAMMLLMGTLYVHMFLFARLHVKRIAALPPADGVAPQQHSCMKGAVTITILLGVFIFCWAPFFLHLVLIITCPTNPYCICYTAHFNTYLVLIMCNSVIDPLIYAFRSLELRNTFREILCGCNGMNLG
The target of assay [8] is hMC5-R (human) (UniProt P33032). Put plainly: cell-based or functional assay.
Chain of hMC5-R (human) (P33032 whole entry): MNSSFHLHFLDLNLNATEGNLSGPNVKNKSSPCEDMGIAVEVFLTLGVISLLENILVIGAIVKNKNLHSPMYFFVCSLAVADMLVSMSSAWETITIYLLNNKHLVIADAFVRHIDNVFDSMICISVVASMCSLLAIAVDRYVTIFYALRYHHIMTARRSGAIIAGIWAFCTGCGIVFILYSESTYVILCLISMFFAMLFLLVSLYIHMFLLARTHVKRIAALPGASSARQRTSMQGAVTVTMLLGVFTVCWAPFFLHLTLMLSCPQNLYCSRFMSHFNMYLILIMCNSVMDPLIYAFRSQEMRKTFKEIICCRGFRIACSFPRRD
The target of assay [9] is hMC5-R (human), P33032. Put plainly: competition with [125I]-NDP-α-MSH, CHO-K1 membranes.
Chain of hMC5-R (human), P33032 (P33032 whole entry): as above

A word on the Ki: it is the dissociation constant of the complex between target and ligand, obtained from inhibition or displacement. Higher therefore signals lower affinity.

Chain of human melanocortin receptor subtype 4 (hMC4-R) (human) (P32245 whole entry): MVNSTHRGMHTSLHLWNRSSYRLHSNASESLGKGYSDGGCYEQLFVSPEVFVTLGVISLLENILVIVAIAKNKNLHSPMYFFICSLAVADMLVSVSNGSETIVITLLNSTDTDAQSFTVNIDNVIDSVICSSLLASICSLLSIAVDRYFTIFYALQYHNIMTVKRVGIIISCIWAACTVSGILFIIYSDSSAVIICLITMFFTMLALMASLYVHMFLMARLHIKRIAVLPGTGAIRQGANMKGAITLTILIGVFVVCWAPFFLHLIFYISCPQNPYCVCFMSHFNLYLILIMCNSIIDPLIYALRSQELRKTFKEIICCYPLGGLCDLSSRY
Chain of human melanocortin receptor subtype 1 (hMC1-R) (human) (Q01726 whole entry): as the sequence (Q01726 whole entry) above
Chain of human melanocortin receptor subtype 5 (hMC5-R) (human) (P33032 whole entry): as the sequence (P33032 whole entry) above
Chain of human melanocortin receptor subtype 3 (hMC3-R) (human) (P41968 whole entry): as the sequence (P41968 whole entry) above
Chain of hMC4-R (human) (P32245 whole entry): as the sequence (P32245 whole entry) above

For the molecule G[dR]C[dA]H[dF]RWC-NH2 (bridge N-2 via C(O) hydantoin; disulfide 3-9; not fully specified) [Hydantoin(C(O)-(Gly-D-Arg))-c(Cys-D-Ala-His-D-Phe-Arg-Trp-Cys)-NH2], the inhibition constant (Ki) in [1] was 0.0292 µM; in assay [2], 0.00351 µM; in [3], 0.914 µM; in [4], 0.00604 µM.

For the molecule E[dA]H[dF]RW[Dap]-NH2 (lactam 1-7 (inferred); also: hydantoin ring from C(O) with Glu1-D-Ala2) [c[Hydantoin(C(O)-(Glu-D-Ala))-His-D-Phe-Arg-Trp-Dap]-NH2], the cAMP EC50 in assay [5] is 0.0567 µM; in assay [6], 0.000182 µM; in [7] it was 0.0182 µM; in assay [8] it was above 10 µM. Moreover, the Ki in assay [1] was determined as 0.863 µM; in assay [2], 0.0164 µM; in [4], 0.00497 µM.

D[dA]H[dF]RW[Orn]-NH2 (lactam 1-7; also: hydantoin ring from C(O) with Asp1-D-Ala2) [c[Hydantoin(C(O)-(Asp-D-Ala))-His-D-Phe-Arg-Trp-Orn]-NH2]: the cAMP EC50 in assay [5] worked out at 0.0566 µM; in assay [6], 0.0045 µM; in [7], 0.0886 µM; in assay [8] it was 9.3 µM. Also, the Ki in [1] turned out to be 0.576 µM; in assay [2], 0.0377 µM; in assay [3], 6.4 µM; in assay [4], 0.00781 µM.

Ac-RC[dA]H[dF]RWC-NH2 (disulfide 2-8) [Ac-Arg-c(Cys-D-Ala-His-D-Phe-Arg-Trp-Cys)-NH2] displayed an inhibitory constant (Ki) in [9] of 0.43 µM. That is a sub-micromolar value.

On to E[dA]H[dF]RW[Dab]-NH2 (lactam 1-7; also: hydantoin ring from C(O) with Glu1-D-Ala2) [c[Hydantoin(C(O)-(Glu-D-Ala))-His-D-Phe-Arg-Trp-Dab]-NH2], for which the Ki was determined as 0.0905 µM in assay [1], 0.028 µM in [2], 0.877 µM in assay [3] and 0.0127 µM in assay [4].
